According to publication PMC12459236:

Target: SpyTag-AP205 recombinant protein (self-assembled AP205 nanoparticles) (bacteriophage AP205)
Experiment: SDS-PAGE of covalent coupling; purified ST-AP205 and CTD-SC mixed at designated molar ratios, left overnight at 4°C; covalent SpyTag-SpyCatcher coupling read by SDS-PAGE

In the case of “PDCoV S1-CTD-SpyCatcher recombinant protein”, the rate of formation of CTDnps (ST-AP205:CTD-SC molar ratio 4:10) is reported as > 80%.
